Where two headings read alike, the source gives them in different places.
Key:
[1] = tested on: phospho-S469 CNAα in rat hippocampal neurons; format: cell-based
[2] = molecular target: T1, phosphorylated CNAα (Mus musculus, UniProt P63328); assay: Lambda phosphatase de-phosphorylation specificity test on membrane; format: binding; settings: cortical neuron (15DIV) lysates on PVDF membrane, with or without cLTP
T1 construct: protein lysates from cortical neurons (15DIV), either 5 min post-cLTP induction or no cLTP control; endogenous in cells; host or cells: primary cortical neurons (15DIV)
Method: To further test the specificity of the murine monoclonal antibody for phosphorylated CNAα, de-phosphorylation experiments were performed using lambda phosphatase on protein fixed in a membrane. Specifically, protein lysates from cortical neurons (15DIV), either 5 min post-cLTP induction or no cLTP control, were separated by SDS-PAGE and subsequently transferred to a PVDF membrane. One section of the membrane was incubated overnight at room temperature with lambda phosphatase (FIG. 13, top panel, right blot), while another section was incubated under the same conditions without phosphatase (FIG. 13, top panel, left blot). Following these incubations, the phosphatase-treated and control membrane sections were incubated with the antibody and antibody binding was detected by chemiluminescence. […] As a loading control, the level of total CNAα was also assessed in both membranes sections after the incubations with or without phosphatase (bottom panel of the figure).

[3] = tested on: CNAα recombinant protein; assay: Western blot of CNAα recombinant protein WT, S469E and S462E/S469E with monoclonal antibody; format: binding
Method: The validation of the specificity of the antibody for pS469 was additionally determined by Western blot using CNAα recombinant protein WT (unphosphorylated), the phosphomimic mutant S469E (see examples above) and a double mutant with substitutions of E for S at both positions 462 and 469 (S462E/S469E). […] Levels of total CNAα were used as a loading control and were assessed after stripping of the membranes and incubation with anti-CNAα rabbit by chemiluminescence (bottom panel).

[4] = listed as monoclonal murine anti-S469 CNAα phosphospecific antibody

B1: brain-derived neurotrophic factor (protein, UniProt P23560 19-247, looked up)
Neurotrophic factor BDNF …: APMKEANIRGQGGLAYPGVRTHGTLESVNGPKAGSRGLTSLADTFEHVIEELLDEDQKVRPNEENNKDADLYTSRVMLSSQVPLEPPLLFLLEEYKNYLDAANMSMRVRRHSDPARRGELSVCDSISEWVTAADKKTAVDMSGGTVTVLEKVPVSKGQLKQYFYETKCNPMGYTKEGCRGIDKRHWNSQCRTTQSYVRALTMDSKKRIGWRFIRIDTSCVCTLTIKRGR
levels of phospho-S469 CNAα within dendrites [1]: no change

B2: monoclonal mouse anti-pS469 CNAα antibody: monoclonal mouse antibody with the heavy and light chain variable regions listed in the Sequence Table (antibody, V domains shown)
VH: EVQLQQSGAELVRPGASVKLSCTASDFNIKDTYIHWLKQRPEQGLEWIGRIDPANSNPKYDPNFQGKATITTDTSSNTAYLQLSSLTSDDTAVYYCTRRDYYGSGSWFAYWGQGTLVTVSS
VL: DIVMTQAAPSVPVTPGESVSISCRSSKSLLHSNGNTYLYWFLQRPGQSPQLLIYRMSNLASGVPDRFSGSGSGTAFTLRINRVEAEDVGVYYCMQHLEYPLTFGAGTKLELK
recognition of CNAα with or without lambda phosphatase treatment ([2]; listed as monoclonal antibody): only able to recognize CNAα in absence of lambda phosphatase treatment | recognition of CNAα with or without lambda phosphatase treatment ([2]; listed as monoclonal murine anti-S469 phosphospecific antibody): eliminated phosphospecific antibody binding | recognition of double mutant S462E/S469E [3]: recognition | recognition of recombinant protein S469E [3]: recognizes | recognition of wild-type unphosphorylated CNAα recombinant protein [3]: not | recognition of double mutant S462E/S469E [3, 4]: does recognize | recognition of recombinant protein S469E [3, 4]: does recognize | recognition of wild-type unphosphorylated CNAα recombinant protein [3, 4]: does not recognize
